± gives the standard deviation of the averaged measurements.

The data set has as its system Saccharomyces cerevisiae. The experiment in a line: protein stability index of tFT-peptide fusion (C-terminal peptide) (PSI (0-1 scale)); higher = more stable (slower turnover). To be noted: temperature: 30 C. The protocol: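 MPS profiling in S. cerevisiae of the yeast C-terminome library: the last 12 aa of each annotated ORF are fused to the C-terminus of a sfGFP-mCherry timer, after a GGGS linker. Cells are FACS-sorted into 8 mCherry/sfGFP bins and deep-sequenced. PSI runs from 0 (unstable) to 1 (stable); wild type and das1Δ backgrounds, two technical replicates each.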

Where [1] appears, read: genetic background: das1 deletion.

LRFEEMNSDLVQ [ROG1 C-terminal 12 aa] registered a protein stability index under setting [1] of 0.705 ± 0.0096 and a protein stability index (genetic background: wild type) of 0.747 ± 0.12.
As to LRRSFAIYTLGH [MCM2 C-terminal 12 aa], the protein stability index was found to be 0.647 ± 0.027 under setting [1] and 0.6562 ± 0.0043 (genetic background: wild type).
Regarding LRVEWSKPKVKE [TIF35 C-terminal 12 aa], the protein stability index is, setting by setting: under setting [1], 0.699 ± 0.015; (genetic background: wild type) 0.711 ± 0.044.
With LSDDEEEEEEEE [RIX1 C-terminal 12 aa], the protein stability index by setting is: under setting [1], 0.648 ± 0.048; (genetic background: wild type) 0.645 ± 0.033.
LSEEDLLDDESS [YPF1 C-terminal 12 aa]: the protein stability index turned out to be 0.669 ± 0.042 under setting [1] and 0.698 ± 0.0078 (genetic background: wild type).
On to LSGAPQVTKKQN [POM33 C-terminal 12 aa], for which the protein stability index was 0.691 ± 0.013 under setting [1] and 0.674 ± 0.016 (genetic background: wild type).
For LSHAQKEIYEFK [UTP25 C-terminal 12 aa], the protein stability index reads like this: under setting [1], 0.687 ± 0.011; (genetic background: wild type) 0.691 ± 0.056.
In turn, LSQFSNVRYLLQ [VPS70 C-terminal 12 aa] returned a protein stability index under setting [1] of 0.7367 ± 0.0022 and a protein stability index (genetic background: wild type) of 0.545 ± 0.0054.
Turning to LSQWVSQMPFPM [LRO1 C-terminal 12 aa], the protein stability index runs as follows: under setting [1], 0.79828 ± 0.00044; (genetic background: wild type) 0.8015 ± 0.0025.
Taken in the same sequence, the figures for LTEMSAKISFED [AAD10 C-terminal 12 aa] were 0.717 ± 0.019 and 0.779 ± 0.011.
Sequence LTHQSLLATARK [KIP3 C-terminal 12 aa] displayed a protein stability index under setting [1] of 0.6931 ± 0.0014 and a protein stability index (genetic background: wild type) of 0.6879 ± 0.00097.
For LTLIPILFGKLQ [YNL203C C-terminal 12 aa], in that order: 0.6875 ± 0.0045 and 0.354 ± 0.0097.
Taken in the same sequence, the figures for LTSIWKTILFFK [YEL076C C-terminal 12 aa] were 0.41 ± 0.014 and 0.468 ± 0.061.
For LTSYINVHLVYV [YNL285W C-terminal 12 aa], the protein stability index is 0.301 ± 0.016 under setting [1] and 0.325 ± 0.0042 (genetic background: wild type).
Take LVAEATKKKRHT [DJP1 C-terminal 12 aa]: the protein stability index was 0.7115 ± 0.0067 under setting [1] and 0.6936 ± 0.0052 (genetic background: wild type).
For LVKCASATIMLN [MIN3 C-terminal 12 aa], in that order: 0.704 ± 0.021 and 0.483 ± 0.022.
Consider LVKPKNWKKFRE [KRE2 C-terminal 12 aa], for which the protein stability index is 0.686 ± 0.017 under setting [1] and 0.733 ± 0.022 (genetic background: wild type).
Take LVSYFIKVQMKL [ECM3 C-terminal 12 aa]: the protein stability index was 0.487 ± 0.0087 under setting [1] and 0.443 ± 0.025 (genetic background: wild type).
Taken in the same sequence, the figures for LVYATELIGSGS [ICE2 C-terminal 12 aa] were 0.7058 ± 0.0022 and 0.7 ± 0.073.
On to LYEHGIKKFDDL [JIP5 C-terminal 12 aa], for which the protein stability index reads like this: under setting [1], 0.674 ± 0.029; (genetic background: wild type) 0.721 ± 0.039.
LYTFIVKKVKRD [GID12 C-terminal 12 aa]: the protein stability index was 0.671 ± 0.045 under setting [1] and 0.685 ± 0.024 (genetic background: wild type).
With MEALKEAREILG [MSH1 C-terminal 12 aa], the protein stability index by setting is: under setting [1], 0.7025 ± 0.0022; (genetic background: wild type) 0.628 ± 0.019.
Consider MFLSIQPQEARP [KAP120 C-terminal 12 aa], for which the protein stability index under setting [1] was determined as 0.72 ± 0.0086 and the protein stability index (genetic background: wild type) was 0.713 ± 0.011.
Take MFNASSDIFQRN [YML083C C-terminal 12 aa]: the protein stability index was 0.703 ± 0.016 under setting [1] and 0.7014 ± 0.0067 (genetic background: wild type).
The sequence MKEKLKHSRKYM [SHY1 C-terminal 12 aa] displayed a protein stability index under setting [1] of 0.7121 ± 0.0039 and a protein stability index (genetic background: wild type) of 0.6685 ± 0.0027.
For MKGYGFEVPSAN [COX17 C-terminal 12 aa], in that order: 0.6984 ± 0.0041 and 0.663 ± 0.0067.
MKLFEENKKEEE [PET111 C-terminal 12 aa] showed a protein stability index under setting [1] of 0.722 ± 0.014 and a protein stability index (genetic background: wild type) of 0.684 ± 0.035.
With MLAKIHKLNNKA [RFC4 C-terminal 12 aa], the protein stability index by setting is: under setting [1], 0.7026 ± 0.0053; (genetic background: wild type) 0.704 ± 0.066.
Take MLKFLAVVFFLL [YGL218W C-terminal 12 aa]: the protein stability index was 0.392 ± 0.018 under setting [1] and 0.217 ± 0.011 (genetic background: wild type).
MLNQQQQQQQQS [NRD1 C-terminal 12 aa]: the protein stability index was 0.702 ± 0.016 under setting [1] and 0.739 ± 0.017 (genetic background: wild type).
Turning to MNNLFNPHSHDS [GTA1 C-terminal 12 aa], the protein stability index came out at 0.7104 ± 0.0014 under setting [1] and 0.722 ± 0.042 (genetic background: wild type).
In the case of MQHRGWSSLMSL [YJR146W C-terminal 12 aa], the protein stability index is, setting by setting: under setting [1], 0.7031 ± 0.0016; (genetic background: wild type) 0.6548 ± 0.0047.
For the sequence MSSTKKVRFVML [RMD5 C-terminal 12 aa], the protein stability index was 0.696 ± 0.035 under setting [1] and 0.642 ± 0.035 (genetic background: wild type).
For MTSLDICALGIK [RVS161 C-terminal 12 aa], in that order: 0.689 ± 0.012 and 0.675 ± 0.046.
As to NADDPSYYHYLS [CUL3 C-terminal 12 aa], the protein stability index stood at 0.7059 ± 0.0024 under setting [1] and 0.68 ± 0.01 (genetic background: wild type).
On to NASEIYVKRKTG [DDL1 C-terminal 12 aa], for which the protein stability index under setting [1] was determined as 0.708 ± 0.041 and the protein stability index (genetic background: wild type) was found to be 0.204 ± 0.03.
Sequence “NASIFTVLSYCS [YEL020C-B C-terminal 12 aa]” displayed a protein stability index under setting [1] of 0.6702 ± 0.0016 and a protein stability index (genetic background: wild type) of 0.668 ± 0.02.
Regarding NDDNFDDAQEQQ [SEC2 C-terminal 12 aa], the protein stability index reads like this: under setting [1], 0.6977 ± 0.0015; (genetic background: wild type) 0.7002 ± 0.0057.
For the sequence NDIFIPEQEHKQ [HPT1 C-terminal 12 aa], the protein stability index runs as follows: under setting [1], 0.721 ± 0.011; (genetic background: wild type) 0.674 ± 0.029.
As for “NELSLRPATERI [YBL100W-A C-terminal 12 aa]”, the protein stability index is, setting by setting: under setting [1], 0.6853 ± 0.0012; (genetic background: wild type) 0.711 ± 0.015.
Consider NEPEVQPEAAAN [PUS1 C-terminal 12 aa], for which the protein stability index is 0.679 ± 0.0086 under setting [1] and 0.69 ± 0.011 (genetic background: wild type).
In turn, NESLNDYFTGIK [YBP1 C-terminal 12 aa] showed a protein stability index under setting [1] of 0.706 ± 0.0084 and a protein stability index (genetic background: wild type) of 0.772 ± 0.16.
For the sequence NFAMLGLGPNWE [YUH1 C-terminal 12 aa], the protein stability index came to 0.722 ± 0.0065 under setting [1] and 0.725 ± 0.057 (genetic background: wild type).
As for “NFWNTGSAIFMQ [YHR069C-A C-terminal 12 aa]”, the protein stability index by setting is: under setting [1], 0.7347 ± 0.0017; (genetic background: wild type) 0.719 ± 0.029.
NGMWQKPEPGVS [YIL067C C-terminal 12 aa] gave a protein stability index under setting [1] of 0.691 ± 0.012 and a protein stability index (genetic background: wild type) of 0.706 ± 0.028.
In the case of NGRYVDTDFDSM [LCB5 C-terminal 12 aa], the protein stability index reads like this: under setting [1], 0.707 ± 0.02; (genetic background: wild type) 0.659 ± 0.013.
In the case of NGTMKRGGVKNK [HPC2 C-terminal 12 aa], the protein stability index is 0.697 ± 0.02 under setting [1] and 0.6239 ± 0.0045 (genetic background: wild type).
For NHPSNDSGNEKN [HCM1 C-terminal 12 aa], in that order: 0.667 ± 0.025 and 0.656 ± 0.029.
NHSSSGNKHDEL [MPD1 C-terminal 12 aa]: the protein stability index was 0.657 ± 0.0067 under setting [1] and 0.686 ± 0.035 (genetic background: wild type).
Regarding NIILNWIYPYQR [COX18 C-terminal 12 aa], the protein stability index runs as follows: under setting [1], 0.703 ± 0.033; (genetic background: wild type) 0.778 ± 0.076.
